ΔΔGu, ΔGu and Dimer-Tetramer Kd data for two molecules are collected here from patent publication US6090911.

Experiment [1] concerns the target A1 acidic leucine zipper protein. The experiment can be described thus: urea denaturation followed by CD at 222 nm; difference in the free energies of unfolding at 50% unfolded.
Experiment [2] shares this target. The experiment in a line: urea denaturation followed by CD at 222 nm, two-state model; ΔGu from lnKd,u (dissociation of the dimers) extrapolated to zero denaturant.
For experiment [3] the target is unchanged. The experiment can be described thus: analytical ultracentrifugation of protein solutions (24 to 220 µM); self-association of A1 dimers to tetramers; 95% confidence limits printed as (50-112).
The target of experiment [4] is T1, B1 basic leucine zipper protein.
T1 sequence: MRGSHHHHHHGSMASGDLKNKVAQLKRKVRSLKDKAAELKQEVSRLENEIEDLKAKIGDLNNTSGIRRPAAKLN
The experiment can be described thus: urea denaturation of the equimolar mixture followed by CD at 222 nm, two-state model; ΔGu from lnKd,u (dissociation of the dimers) extrapolated to zero denaturant.

The target is the same in experiment [5]. The experiment in a line: urea denaturation of the equimolar mixture followed by CD at 222 nm; difference in the free energies of unfolding at 50% unfolded.
For experiment [6] the target is unchanged. The experiment in a line: analytical ultracentrifugation of protein solutions (24 to 220 µM); self-association of B1 dimers to tetramers; 95% confidence limits printed as (1-6).
Experiment [7] has the same target. The experiment in a line: urea denaturation followed by CD at 222 nm; difference in the free energies of unfolding at 50% unfolded.
Experiment [8] shares this target. The experiment in a line: urea denaturation followed by CD at 222 nm, two-state model; ΔGu from lnKd,u (dissociation of the dimers) extrapolated to zero denaturant.

B1: A1 acidic leucine zipper protein (designed binder)
chain: MRGSHHHHHHGSMASGDLENEVAQLEREVRSLEDEAAELEQKVSRLKNEIEDLKAEIGDLNNTSGIRRPAAKLN
Turning to B1, the results for the ΔΔGu in experiment [1] and in experiment [5] were 0 kcal/mol and 2.75 kcal/mol, respectively. Also, the ΔGu in experiment [2] was 11.5 kcal/mol; in experiment [4], 13.8 kcal/mol. The molecule further displayed a Dimer-Tetramer Kd in experiment [3] of 76 µM.

B2: B1 basic leucine zipper protein (designed binder)
chain: T1 sequence
The molecule B2 showed a Dimer-Tetramer Kd in experiment [6] of 123 µM. This molecule also displayed a ΔΔGu in experiment [7] of 0.13 kcal/mol. For the same molecule, in experiment [8], the ΔGu is 12.6 kcal/mol.
